Experimental findings from US20150064134A1 are described below.

Some targets named below: GRK6(h) (human) (UniProt P43250); PKCα(h) (human) (UniProt P17252); PKCθ(h) (human) (UniProt Q04759).
Experiment in all cases: cell-based or functional assay
Another assay deals with T1, ARK5(h) (human) (UniProt O60285).
T1 sequence (looked up): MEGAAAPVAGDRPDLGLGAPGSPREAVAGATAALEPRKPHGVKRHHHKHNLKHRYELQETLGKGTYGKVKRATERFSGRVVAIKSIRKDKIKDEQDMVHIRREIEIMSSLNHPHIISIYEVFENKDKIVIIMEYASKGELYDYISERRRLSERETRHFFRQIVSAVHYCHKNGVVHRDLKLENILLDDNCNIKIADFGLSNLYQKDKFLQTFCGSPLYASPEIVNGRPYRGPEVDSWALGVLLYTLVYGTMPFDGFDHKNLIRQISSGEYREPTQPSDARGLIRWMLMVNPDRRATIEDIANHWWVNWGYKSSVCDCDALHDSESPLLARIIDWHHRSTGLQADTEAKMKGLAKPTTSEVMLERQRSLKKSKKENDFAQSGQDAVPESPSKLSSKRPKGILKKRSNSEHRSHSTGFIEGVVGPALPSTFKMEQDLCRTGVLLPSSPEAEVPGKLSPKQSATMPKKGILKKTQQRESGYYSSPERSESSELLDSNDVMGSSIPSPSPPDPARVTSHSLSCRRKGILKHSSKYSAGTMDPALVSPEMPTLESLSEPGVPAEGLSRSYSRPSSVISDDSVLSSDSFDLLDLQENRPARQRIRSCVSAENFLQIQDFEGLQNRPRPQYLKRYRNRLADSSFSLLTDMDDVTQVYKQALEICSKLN

The next assay has as its target T2, NLK(h) (human) (UniProt Q9UBE8).
T2 sequence (looked up): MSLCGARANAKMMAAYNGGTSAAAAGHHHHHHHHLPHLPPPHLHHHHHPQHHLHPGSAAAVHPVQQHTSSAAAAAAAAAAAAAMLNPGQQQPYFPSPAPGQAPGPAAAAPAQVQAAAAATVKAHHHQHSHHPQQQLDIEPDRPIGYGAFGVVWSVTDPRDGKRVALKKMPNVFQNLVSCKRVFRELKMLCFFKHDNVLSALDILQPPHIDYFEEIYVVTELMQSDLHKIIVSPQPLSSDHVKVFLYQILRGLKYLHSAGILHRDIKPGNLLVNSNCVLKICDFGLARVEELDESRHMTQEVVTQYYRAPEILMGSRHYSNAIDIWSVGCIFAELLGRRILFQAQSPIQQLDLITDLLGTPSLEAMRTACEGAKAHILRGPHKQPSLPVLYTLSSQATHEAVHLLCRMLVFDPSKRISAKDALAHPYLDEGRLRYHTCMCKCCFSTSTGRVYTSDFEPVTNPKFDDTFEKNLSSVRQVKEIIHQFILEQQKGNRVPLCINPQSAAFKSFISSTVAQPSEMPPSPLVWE

A further assay addresses T3, PKD2(h) (human) (UniProt Q9BZL6).
T3 sequence (looked up): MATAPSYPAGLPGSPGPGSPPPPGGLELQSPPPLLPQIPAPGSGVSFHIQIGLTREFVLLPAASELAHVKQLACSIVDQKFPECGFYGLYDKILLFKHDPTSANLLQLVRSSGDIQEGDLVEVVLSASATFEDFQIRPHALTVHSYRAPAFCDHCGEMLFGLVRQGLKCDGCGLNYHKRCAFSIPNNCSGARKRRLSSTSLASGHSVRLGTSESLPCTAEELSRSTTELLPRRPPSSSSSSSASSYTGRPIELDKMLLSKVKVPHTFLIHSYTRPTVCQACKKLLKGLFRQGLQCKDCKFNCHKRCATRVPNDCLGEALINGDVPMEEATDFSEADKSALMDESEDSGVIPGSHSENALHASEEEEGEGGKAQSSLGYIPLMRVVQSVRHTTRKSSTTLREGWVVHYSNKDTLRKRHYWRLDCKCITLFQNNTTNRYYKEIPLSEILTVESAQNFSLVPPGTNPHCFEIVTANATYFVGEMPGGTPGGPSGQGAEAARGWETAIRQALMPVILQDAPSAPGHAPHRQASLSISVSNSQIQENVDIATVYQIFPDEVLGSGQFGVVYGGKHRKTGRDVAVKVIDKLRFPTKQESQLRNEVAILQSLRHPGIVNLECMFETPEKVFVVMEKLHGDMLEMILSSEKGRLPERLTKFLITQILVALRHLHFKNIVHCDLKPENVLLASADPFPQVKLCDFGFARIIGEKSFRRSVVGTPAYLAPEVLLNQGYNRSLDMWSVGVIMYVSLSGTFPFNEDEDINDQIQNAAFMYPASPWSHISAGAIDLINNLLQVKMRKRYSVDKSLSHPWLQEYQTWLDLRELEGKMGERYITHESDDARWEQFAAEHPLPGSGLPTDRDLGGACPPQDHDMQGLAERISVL

For a further assay, the target named is T4, TAO3(h) (human) (UniProt Q9H2K8).
T4 sequence (looked up): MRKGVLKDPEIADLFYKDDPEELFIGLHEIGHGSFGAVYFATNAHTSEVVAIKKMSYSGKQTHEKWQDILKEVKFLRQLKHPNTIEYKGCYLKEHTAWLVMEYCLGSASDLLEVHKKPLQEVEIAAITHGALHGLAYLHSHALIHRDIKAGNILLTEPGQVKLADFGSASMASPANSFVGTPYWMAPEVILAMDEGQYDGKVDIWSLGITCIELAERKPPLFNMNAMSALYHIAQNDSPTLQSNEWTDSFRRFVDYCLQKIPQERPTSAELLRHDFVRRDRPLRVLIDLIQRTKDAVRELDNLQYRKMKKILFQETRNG

For the substance MMI-0500 (peptide), the % activity at 100 µM in the assay with ARK5(h) (human) came out at 20%; in the assay with GRK6(h) (human), 174%; in the assay with NLK(h) (human), 19%; with PKCα(h) (human) it was 3%; in the assay with PKCθ(h) (human), 62%; with PKD2(h) (human), 10%. The % activity at 100 µM with TAO3(h) (human) was determined as 12%.
For MMI-0300 (peptide), the % activity at 100 µM was found to be 78% with ARK5(h) (human); 147% with GRK6(h) (human); 87% with NLK(h) (human); 89% in the assay with PKCα(h) (human); 88% in the assay with PKCθ(h) (human); 33% with PKD2(h) (human). The % activity at 100 µM in the assay with TAO3(h) (human) was 77%.
Regarding MMI-0400 (peptide), the % activity at 100 µM in the assay with ARK5(h) (human) was 69%; with GRK6(h) (human), 141%; in the assay with NLK(h) (human) it was 90%; with PKCα(h) (human) it was 86%; with PKCθ(h) (human), 76%; with PKD2(h) (human) it was 25%. The % activity at 100 µM with TAO3(h) (human) was 67%.
